Measurements: patent US20210380703A1

biological target: human Fc (human); test: ELISA, negative control

optical density [OD]	Binder
0.272	366_E08 (antibody, V domains shown) VH: EVQLLESGGGLVQPGGSLRLSCAASGFTFSDYSMNWVRQAPGKGLEWVSNINYNGGYTSYADSVKGRFTISRDNSKNTLYLQMNSLRAEDTAVYYCARGANWHDTHLDYWGQGTLVTVSS VL: DIQMTQSPSSLSASVGDRVTITCRASQSIVTYLNWYQQKPGKAPKLLIYAATSRHSGVPSRFSGSGSGTDFTLTISSLQPEDFATYYCQQSYSNPLTFGGGTKVEIK
0.252	367_A08 (antibody, V domains shown) VH: EVQLLESGGGLVQPGGSLRLSCAASGFTFDSYGMNWVRQAPGKGLEWVAGINYNGGYTSYADSVKGRFTISRDNSKNTLYLQMNSLRAEDTAVYYCARGANWHDTHLDYWGQGTLVTVSS VL: DIQMTQSPSSLSASVGDRVTITCRASQSILTYLNWYQQKPGKAPKLLIYAVTSRASGVPSRFSGSGSGTDFTLTISSLQPEDFATYYCQQSYDSPLTFGGGTKVEIK
0.39	367_A12 (antibody, V domains shown) VH: EVQLLESGGGLVQPGGSLRLSCAASGFTFSSYGMNWVRQAPGKGLEWVSGINYNSGYTSYADSVKGRFTISRDNSKNTLYLQMNSLRAEDTAVYYCARGANWHDTHLDYWGQGTLVTVSS VL: DIQMTQSPSSLSASVGDRVTITCRASQSILSYLNWYQQKPGKAPKLLIYAATSLHSGVPSRFSGSGSGTDFTLTISSLQPEDFATYYCQQSYNNPLTFGGGTKVEIK
0.318	366_D03 (antibody, V domains shown) VH: EVQLLESGGGLVQPGGSLRLSCAASGFTFDSYGMHWVRQAPGKGLEWVSSINYNGGYTGYADSVKGRFTISRDNSKNTLYLQMNSLRAEDTAVYYCARAANWHDTHLDYWGQGTLVTVSS VL: DIQMTQSPSSLSASVGDRVTITCRASQSILSYVNWYQQKPGKAPKLLIYAATSRASGVPSRFSGSGSGTDFTLTISSLQPEDFATYYCQQSYDLPLTFGGGTKVEIK
0.371	366_F02 (antibody, V domains shown) VH: EVQLLESGGGLVQPGGSLRLSCAASGFTFSSYGMNWVRQAPGKGLEWVSGINYNSGYTGYADSVKGRFTISRDNSKNTLYLQMNSLRAEDTAVYYCARGANWHDTHLDYWGQGTLVTVSS VL: DIQMTQSPSSLSASVGDRVTITCRASQSILTYLNWYQQKPGKAPKLVIYAATSRHSGVPSRFSGSGSGTDFTLTISSLQPEDFATYYCQQSYDNPLTFGGGTKVEIK
0.387	367_C07 (antibody, V domains shown) VH: EVQLLESGGGLVQPGGSLRLSCAASGFTFSSYSMNWVRQAPGKGLEWVSSINYNSGYTGYADSVKGRFTISRDNSKNTLYLQMNSLRAEDTAVYYCARGANWHDTHLDYWGQGTLVTVSS VL: DIQMTQSPSSLSASVGDRVTITCRASQSILTYVNWYQQKPGKAPKLLIYAATSRASGVPSRFSGSGSGTDFTLTISSLQPEDFATYYCQQSYNLPLTFGGGTKVEIK
0.29	367_D03 (antibody, V domains shown) VH: EVQLLESGGGLVQPGGSLRLSCAASGFTFDSYSMNWVRQAPGKGLEWVSSINYNGGYTGYADSVKGRFTISRDNSKNTLYLQMNSLRAEDTAVYYCARGANWHDTHLDYWGQGTLVTVSS VL: DIQMTQSPSSLSASVGDRVTITCRASQSIITYLNWYQQKPGKAPKLLIYAATSRASGVPSRFSGSGSGTDFTLTISSLQPEDFATYYCQQSYDTPLTFGGGTKVEIK
0.414	367_B12 (antibody, V domains shown) VH: EVQLLESGGGLVQPGGSLRLSCAASGFTFSSYGMHWVRQAPGKGLEWVASINYNGGYKSYADSVKGRFTISRDNSKNTLYLQMNSLRAEDTAVYYCARGANWHDTHLDYWGQGTLVTVSS VL: DIQMTQSPSSLSASVGDRVTITCRASQSILSYVNWYQQKPGKAPKLVIYAATSLASGVPSRFSGSGSGTDFTLTISSLQPEDFATYYCQQSYDTPLTFGGGTKVEIK
0.283	367_D06 (antibody, V domains shown) VH: EVQLLESGGGLVQPGGSLRLSCAASGFTFDSYSMNWVRQAPGKGLEWVAGINYNGGYTSYADSVKGRFTISRDNSKNTLYLQMNSLRAEDTAVYYCARGANWHDTHLDYWGQGTLVTVSS VL: DIQMTQSPSSLSASVGDRVTITCRASQSISTYLNWYQQKPGKAPKLVIYAATSLASGVPSRFSGSGSGTDFTLTISSLQPEDFATYYCQQSYNSPLTFGGGTKVEIK
0.315	367_A10 (antibody, V domains shown) VH: EVQLLESGGGLVQPGGSLRLSCAASGFTFSSYGMNWVRQAPGKGLEWVAGINYNSGYTSYADSVKGRFTISRDNSKNTLYLQMNSLRAEDTAVYYCARGANWHDTHLDYWGQGTLVTVSS VL: DIQMTQSPSSLSASVGDRVTITCRASQSIITYVNWYQQKPGKAPKLLIYAATSLASGVPSRFSGSGSGTDFTLTISSLQPEDFATYYCQQSYDLPLTFGGGTKVEIK
0.233	367_C10 (antibody, V domains shown) VH: EVQLLESGGGLVQPGGSLRLSCAASGFTFDSYSMNWVRQAPGKGLEWVSGINYNGGYTSYADSVKGRFTISRDNSKNTLYLQMNSLRAEDTAVYYCARGANWHDTALDYWGQGTLVTVSS VL: DIQMTQSPSSLSASVGDRVTITCRASQSIVSYVNWYQQKPGKAPKLLIYAVTSRASGVPSRFSGSGSGTDFTLTISSLQPEDFATYYCQQSYETPLTFGGGTKVEIK
0.347	367_A03 (antibody, V domains shown) VH: EVQLLESGGGLVQPGGSLRLSCAASGFTFDSYGMNWVRQAPGKGLEWVAGINYNGGYTSYADSVKGRFTISRDNSKNTLYLQMNSLRAEDTAVYYCARGANWHDTALDYWGQGTLVTVSS VL: DIQMTQSPSSLSASVGDRVTITCRASQSILTYVNWYQQKPGKAPKLLIYATTSRHSGVPSRFSGSGSGTDFTLTISSLQPEDFATYYCQQSYDSPLTFGGGTKVEIK
0.378	367_A06 (antibody, V domains shown) VH: EVQLLESGGGLVQPGGSLRLSCAASGFTFDSYGMNWVRQAPGKGLEWVASINYNGGYKGYADSVKGRFTISRDNSKNTLYLQMNSLRAEDTAVYYCARGANWHDTHLDYWGQGTLVTVSS VL: DIQMTQSPSSLSASVGDRVTITCRASQSILSYVNWYQQKPGKAPKLLIYAATSRHSGVPSRFSGSGSGTDFTLTISSLQPEDFATYYCQQSYDTPLTFGGGTKVEIK
0.237	367_D08 (antibody, V domains shown) VH: EVQLLESGGGLVQPGGSLRLSCAASGFTFSDYSMNWVRQAPGKGLEWVAGINYNGGYTSYADSVKGRFTISRDNSKNTLYLQMNSLRAEDTAVYYCARGANWHDTHLDYWGQGTLVTVSS VL: DIQMTQSPSSLSASVGDRVTITCRASQSILSYLNWYQQKPGKAPKLVIYAATSRHSGVPSRFSGSGSGTDFTLTISSLQPEDFATYYCQQSDDLPLTFGGGTKVEIK
0.265	367_B04 (antibody, V domains shown) VH: EVQLLESGGGLVQPGGSLRLSCAASGFTFDSYSMNWVRQAPGKGLEWVSGINYNSGYKSYADSVKGRFTISRDNSKNTLYLQMNSLRAEDTAVYYCARGANWHDTHLDYWGQGTLVTVSS VL: DIQMTQSPSSLSASVGDRVTITCRASQSILSYLNWYQQKPGKAPKLLIYAATSRASGVPSRFSGSGSGTDFTLTISSLQPEDFATYYCQQSYELPLTFGGGTKVEIK
0.28	366_F10 (antibody, V domains shown) VH: EVQLLESGGGLVQPGGSLRLSCAASGFTFDSYSMNWVRQAPGKGLEWVAGINYNGGYTGYADSVKGRFTISRDNSKNTLYLQMNSLRAEDTAVYYCARAANWHDTHLDYWGQGTLVTVSS VL: DIQMTQSPSSLSASVGDRVTITCRASQSIVSYLNWYQQKPGKAPKLVIYAATSRASGVPSRFSGSGSGTDFTLTISSLQPEDFATYYCQQSYDTPLTFGGGTKVEIK
